B1: HDV Ribozyme (parent)
chain: GGCCGGCAUGGUCCCAGCCUCCUCGCUGGCGCCGGCUGGGCAACAUUCCGAGGGGACCGUCCCCUCGGUAAUGGCGAAUGGGACCCA

Variants of B1 are the subject of the data set. The data set can be described thus: self-cleavage, relative activity (ratio to wild type); higher = more cleavage; co-transcriptional.
In the case of GGCCGGCAUGGUCCCAGCCUGCUCGCUGGCGCCGGCUGGGCAACAUCCCGAGGGGACCGUCCCCUCGGUAAUGGCGAAUGGGACCCA, the self-cleavage was determined as 0.

Consider GGCCGGCAUGGUCCCAGCCUGCUCGCUGGCGCCGGCUGGGCAACAUGCCGAGGGGACCGUCCCCUCGGUAAUGGCGAAUGGGACCCA, for which the self-cleavage worked out at 0.185.

Take GGCCGGCAUGGUCCCAGCCUUCUCGCUGGCGCCGGCUGGGCAACAUUCCGAGGGGACCGUCCCCUCGGUAAUGGCGCAUGGGACCCA: the self-cleavage was determined as 0.125.

GGCCGGCAUGGUCCCAGCCUUCUCGCUGGCGCCGGCUGGGCAACAUUCCGAGGGGAGCGUCCCCUCGGUAAUGGCGAAUGGGACCCA: the self-cleavage is 0.196.

Regarding GGCCGGCAUGGUCCCAGCCUUCUCGCUGGCGCCGGCUGGGCAACAUUCCGAGGGGAACGUCCCCUCGGUAAUGGCGAAUGGGACCCA, the self-cleavage was 0.233.

For GGCCGGCAUGGUCCCAGCCUUCUCGCUGGCGCCGGCUGGGCAACAUUCCGAGGGGACCGUCCCCUCGGUAAUGGCGAGUGGGACCCA, the self-cleavage was 0.155.

As to GGCCGGCAUGGUCCCAGCCUUCUCGCUGGCGCCGGCUGGGCAACAUUGCGAGGGGACCGUCCCCUCGGUAAUGGCGAAUGGGACCCA, the self-cleavage turned out to be 0.181.

Consider GGCCGGCAUGGUCCCAGCCUUCUCGCUGGCGCCGGCUGGGCAACAUUUCGAGGGGACCGUCCCCUCGGUAAUGGCGAAUGGGACCCA, for which the self-cleavage is 0.247.

Take GGCCGGCAUGGUCCCAGCCUUCUCGCUGGCGCCGGCUGGGCAACAUUACGAGGGGACCGUCCCCUCGGUAAUGGCGAAUGGGACCCA: the self-cleavage was 0.302.

As to GGCCGGCAUGGUCCCAGCCUGCUCGCCGGCGCCGGCUGGGCAACAUUCCGAGGGGACCGUCCCCUCGGUAAUGGCGAAUGGGACCCA, the self-cleavage amounted to 0.217.

For GGCCGGCAUGGUCCCAGCCUUCUCGCUGGCGCCGGCUGGGCAACAUUCCGAGGGGACCGUCCCCUCGGUACUGGCGAAUGGGACCCA, the self-cleavage was 0.293.

Consider GGCCGGCAUGGUCCCAGCCUGCUCGCUGGCGCCGGCUGGGCAACAUUCCGACGGGACCGUCCCCUCGGUAAUGGCGAAUGGGACCCA, for which the self-cleavage was found to be 0.111.

As to GGCCGGCAUGGUCCCAGCCUGCUCGCUGGCGCCGGCUGGGCAACAUUCCGAUGGGACCGUCCCCUCGGUAAUGGCGAAUGGGACCCA, the self-cleavage turned out to be 0.117.

Turning to GGCCGGCAUGGUCCCAGCCUGCUCGCUGGCGCCGGCUGGGCAACAUUCCUAGGGGACCGUCCCCUCGGUAAUGGCGAAUGGGACCCA, the self-cleavage amounted to 0.0594.

On to GGCCGGCAUGGUCCCAGCCUUCUCGCUGGCGCCGGAUGGGCAACAUUCCGAGGGGACCGUCCCCUCGGUAAUGGCGAAUGGGACCCA, for which the self-cleavage was determined as 0.0923.

On to GGCCGGCAUGGUCCCAGCCUUCUCGCUGGCGCCGGCUGGGCAACAUUCCGAGGGGCCCGUCCCCUCGGUAAUGGCGAAUGGGACCCA, for which the self-cleavage was found to be 0.289.

For GGCCGGCAUGGUCCCAGCCUGCUCGCUGGCGCCGGCUGGGCAACAUUCCGAGGGGACCGUCCCCUCGGUAAUGGCGAAUGUGACCCA, the self-cleavage worked out at 0.18.

For GGCCGGCAUGGUCCCAGCCUGCUCGCUGGCGCCGGCUGGGCAACAUUCCGAGGGGACCGUCCCCUCGGUAAUGGCGAAUGAGACCCA, the self-cleavage is 0.0604.

For GGCCGGCAUGGUCCCAGCCUGCUCGCUGGCGCCGGCUGGGCAACAUUCCGAGGGGACCGUCCCCUCGGUAAUGGCGAAUGCGACCCA, the self-cleavage was 0.0504.

GGCCGGCAUGGUCCCAGCCUUCUCGCUGGCGCCGGCUGGGCAACAUUCCGAGGGGACCGUCCCCUCGGUAAUGGCGAAUGGGACCCC: the self-cleavage is 0.206.

For the variant GGCCGGCAUGGUCCCAGCCUUCUCGCUGGCGCCGGCUGGGCAACAUUCCGAGGGGACCGUCCCCUCGGUAAUGGCGAAUGGGACCCG, the self-cleavage stood at 0.165.

For the variant GGCCGGCAUGGUCCCAGCCUGCUCGCUGGCGCCGGCUGGGCAACAUUCCGAGGGGACCGUCCCCUCCGUAAUGGCGAAUGGGACCCA, the self-cleavage came to 0.0978.

Turning to GGCCGGCAUGGUCCCAGCCUUCUCGCUGGCGCCGGCUGGGCAACAUUCCGAGGGGACCGUCCCCUCGGUGAUGGCGAAUGGGACCCA, the self-cleavage is 0.271.

In the case of GGCCGGCAUGGUCCCAGCCUUCUCGCUGGCGCCGGCUGGGCAACAUUCCGAGGGGACCGUCCCCUCGGUUAUGGCGAAUGGGACCCA, the self-cleavage was 0.228.

Regarding GGCCGGCAUGGUCCCAGCCUUCUCGCUGGCGCCGGCUGGGCAACAUUCCGAGGGGACCGUCCCCUCGGUCAUGGCGAAUGGGACCCA, the self-cleavage was found to be 0.332.

With GGCCGGCAUGGUCCCAGCCUUCUCGCUGGCGCCGGCUGGGCAACAUUCAGAGGGGACCGUCCCCUCGGUAAUGGCGAAUGGGACCCA, the self-cleavage came out at 0.291.

For the variant GGCCGGCAUGGUCCCAGCCUGCUCGCUGGCGCCGGCUGGGCAACAUUCCGAGGGGACCGUCCCCUCGAUAAUGGCGAAUGGGACCCA, the self-cleavage came out at 0.0707.

On to GGCCGGCAUGGUCCCAGCCUGCUCGCUGGCGCCGGCUGGGCAACAUUCCGAGGGGACCGUCCCCUCGCUAAUGGCGAAUGGGACCCA, for which the self-cleavage turned out to be 0.0554.

For the variant GGCCGGCAUGGUCCCAGCCUGCUCGCUGGCGCCGGCUGGGCAACAUUCCGAGGGGACCGUCCCCCCGGUAAUGGCGAAUGGGACCCA, the self-cleavage amounted to 0.113.

GGCCGGCAUGGUCCCAGCCUGCUCGCUGGCGCCGGCUGGGCAACAUUCCGAGGAGACCGUCCCCUCGGUAAUGGCGAAUGGGACCCA: the self-cleavage is 0.0496.

Turning to GGCCGGCAUGGUCCCAGCCUGCUCGCUGGCGCCGGCUGGGCAACAUUCCGAGGUGACCGUCCCCUCGGUAAUGGCGAAUGGGACCCA, the self-cleavage is 0.0875.

Consider GGCCGGCAUGGUCCCAGCCUUCUCGCUGGCGCCGGCUGGGCAACAUUCCGAGGGGACAGUCCCCUCGGUAAUGGCGAAUGGGACCCA, for which the self-cleavage worked out at 0.136.

Take GGCCGGCAUGGUCCCAGCCUGCUCGCUGGCGCCGGCUGGGCAACAUUCCGAGGGGACCGUCCCCUCGGUAAAGGCGAAUGGGACCCA: the self-cleavage is 0.0723.

Take GGCCGGCAUGGUCCCAGCCUUCUCGCUGGCGCCGGCUGGGCAAGAUUCCGAGGGGACCGUCCCCUCGGUAAUGGCGAAUGGGACCCA: the self-cleavage was determined as 0.424.

With GGCCGGCAUGGUCCCAGCCUUCUCGCUGGCGCCGGCUGGGCAAUAUUCCGAGGGGACCGUCCCCUCGGUAAUGGCGAAUGGGACCCA, the self-cleavage is 0.62.

In the case of GGCCGGCAUGGUCCCAGCCUUCUCGCUGGCGCCGGCUGGGGAACAUUCCGAGGGGACCGUCCCCUCGGUAAUGGCGAAUGGGACCCA, the self-cleavage was determined as 0.432.

Consider GGCCGGCAUGGUCCCAGCCUGCUCGCUGGCGCCGGCUGGGCAACAUUCCGAGGGGACCGUCCCCUCGGUAAUGGCGAAAGGGACCCA, for which the self-cleavage is 0.0875.

For GGCCGGCAUGGUCCCAGCCUGCUCGCUGGCGCCGGCUGGGCAACAUUCCGAGGGGACCGUCCCCUCGGUAAUGGCGAACGGGACCCA, the self-cleavage is 0.0244.

In the case of GGCCGGCAUGGUCCCAGCCUUCUCGCUGGCGGCGGCUGGGCAACAUUCCGAGGGGACCGUCCCCUCGGUAAUGGCGAAUGGGACCCA, the self-cleavage amounted to 0.

Consider GGCCGGCAUGGUCCCAGCCUUCUCGCUGGCGACGGCUGGGCAACAUUCCGAGGGGACCGUCCCCUCGGUAAUGGCGAAUGGGACCCA, for which the self-cleavage was found to be 0.0674.

In the case of GGCCGGCAUGGUCCCAGCCUUCUUGCUGGCGCCGGCUGGGCAACAUUCCGAGGGGACCGUCCCCUCGGUAAUGGCGAAUGGGACCCA, the self-cleavage worked out at 0.0287.

On to GGCCGGCAUGGUCCCAGCCUGCUCGCUGGCGCCGGCUGGGCAACAUUCCGAGGGGACCAUCCCCUCGGUAAUGGCGAAUGGGACCCA, for which the self-cleavage is 0.0594.

GGCCGGCAUGGUCCCAGCCUGCUCGCUGGCGCCGGCUGGGCAACAUUCCGAGGGGACCUUCCCCUCGGUAAUGGCGAAUGGGACCCA: the self-cleavage came to 0.0941.

On to GGCCGGCAUGGUCCCAGCCUUCUCGCUGGUGCCGGCUGGGCAACAUUCCGAGGGGACCGUCCCCUCGGUAAUGGCGAAUGGGACCCA, for which the self-cleavage was found to be 0.0755.

As for GGCCGGCAUGGUCCCAGCCUUCUCGCUGGGGCCGGCUGGGCAACAUUCCGAGGGGACCGUCCCCUCGGUAAUGGCGAAUGGGACCCA, the self-cleavage was 0.107.

GGCCGGCAUGGUCCCAGCCUGCUCGCUGGCGCCGGCUGGGCAACAGUCCGAGGGGACCGUCCCCUCGGUAAUGGCGAAUGGGACCCA: the self-cleavage amounted to 0.0978.

On to GGCCGGCAUGGUCCCAGCCUUGUCGCUGGCGCCGGCUGGGCAACAUUCCGAGGGGACCGUCCCCUCGGUAAUGGCGAAUGGGACCCA, for which the self-cleavage worked out at 0.0264.

GGCCGGCAUGGUCCCAGCCUUAUCGCUGGCGCCGGCUGGGCAACAUUCCGAGGGGACCGUCCCCUCGGUAAUGGCGAAUGGGACCCA: the self-cleavage is 0.0482.

Consider GGCCGGCAUGGUCCCAGCCUGCGCGCUGGCGCCGGCUGGGCAACAUUCCGAGGGGACCGUCCCCUCGGUAAUGGCGAAUGGGACCCA, for which the self-cleavage was determined as 0.0755.

In the case of GGCCGGCAUGGUCCCAGCCUGCACGCUGGCGCCGGCUGGGCAACAUUCCGAGGGGACCGUCCCCUCGGUAAUGGCGAAUGGGACCCA, the self-cleavage came to 0.0536.

For the variant GGCCGGCAUGGUCCCAGCCUGCCCGCUGGCGCCGGCUGGGCAACAUUCCGAGGGGACCGUCCCCUCGGUAAUGGCGAAUGGGACCCA, the self-cleavage amounted to 0.0615.

On to GGCCGGCAUGGUCCCAGCCUGCUCGCUGGCGCCGGCUGGGCAACAUUCCGAGUGGACCGUCCCCUCGGUAAUGGCGAAUGGGACCCA, for which the self-cleavage turned out to be 0.0248.

Turning to GGCCGGCAUGGUCCCAGCCUGCUCGCUGGCGCCGGCUGGGCAACAUUCCGAGAGGACCGUCCCCUCGGUAAUGGCGAAUGGGACCCA, the self-cleavage came to 0.0511.

On to GGCCGGCAUGGUCCCAGCCUGCUCGCUGGCGCCGGCGGGGCAACAUUCCGAGGGGACCGUCCCCUCGGUAAUGGCGAAUGGGACCCA, for which the self-cleavage was determined as 0.166.

Turning to GGCCGGCAUGGUCCCAGCCUGCUCGCUGGCGCCGGCUGGGCAACAUUCCGAGGGGACCGUCCCCUCGGUAAUGCCGAAUGGGACCCA, the self-cleavage is 0.104.

For GGCCGGCAUGGUCCCAGCCUGCUCGCUGGCGCCGGCUGGGCAACAUUCCGAGGGGACCGUCCCCUCGGUAAUGGCUAAUGGGACCCA, the self-cleavage was found to be 0.0583.

For the variant GGCCGGCAUGGUCCCAGCCUUCUCGCUGGCGCCGGCUGGGCAGCAUUCCGAGGGGACCGUCCCCUCGGUAAUGGCGAAUGGGACCCA, the self-cleavage came to 0.0898.

Take GGCCGGCAUGGUCCCAGCCUUCUCGCUGGCGCCGGCUGGGCAUCAUUCCGAGGGGACCGUCCCCUCGGUAAUGGCGAAUGGGACCCA: the self-cleavage was found to be 0.13.

For the variant GGCCGGCAUGGUCCCAGCCUUCUCGUUGGCGCCGGCUGGGCAACAUUCCGAGGGGACCGUCCCCUCGGUAAUGGCGAAUGGGACCCA, the self-cleavage is 0.646.

On to GGCCGGCAUGGUCCCAGCCUGCUCGCUGGCGCCGGCUGGGCAACAUUCCGAGGGGACCGUCCCCUCGGCAAUGGCGAAUGGGACCCA, for which the self-cleavage is 0.104.

In the case of GGCCGGCAUGGUCCCAGCCUUCUCGCUGGCGCCGGCUGGGCAACAUUCCGAGGGGACCGUCCCCUCGGUAAUGGCGAAUGGGGCCCA, the self-cleavage is 0.124.

For GGCCGGCAUGGUCCCAGCCUUCUCGCUGGCGCCGGCUGGGCAACAUUCCGAGGGGACCGUCCCCUCGGUAAUGGCGAAUGGGUCCCA, the self-cleavage turned out to be 0.162.

With GGCCGGCAUGGUCCCAGCCUUCUCGCUGGCGCCGGCUGGGCAACAUUCCGAGGGGACCGUCCCCUCGGUAAUGGCGAAUGGGACCCA, the self-cleavage was determined as 0.251.

On to GGCCGGCAUGGUCCCAGCCUGCUCGCUGGCGCCGGCUGGGCAACAUUCCGAGGGGACCGACCCCUCGGUAAUGGCGAAUGGGACCCA, for which the self-cleavage was found to be 0.253.

These data come from the RNAGym collection of RNA variant scans (doi:10.7554/elife.80360).
